In patent US20230416330A1, “Optimized GIP Peptide Analogues” (Antag Therapeutics ApS, priority 2019, published 2023):
Starred links: 1 amine or outer side, 2 acyl side, 3 side chain; linkers in the order of their positions; H or OH if unused. Non-standard residues stand in square brackets, D forms with d. No end group written: not given here. *: point of attachment. C16 diacid = O=C(O)CCCCCCCCCCCCCCC(=O)*; Glutaryl = O=C(CCCC(=O)[*:2])[*:1]; Nle = CCCC[C@H](N)C(=O)O; Aib = CC(C)(N)C(=O)O

T1: human GIP receptor (human, UniProt P48546 22-466)
T1 sequence (looked up): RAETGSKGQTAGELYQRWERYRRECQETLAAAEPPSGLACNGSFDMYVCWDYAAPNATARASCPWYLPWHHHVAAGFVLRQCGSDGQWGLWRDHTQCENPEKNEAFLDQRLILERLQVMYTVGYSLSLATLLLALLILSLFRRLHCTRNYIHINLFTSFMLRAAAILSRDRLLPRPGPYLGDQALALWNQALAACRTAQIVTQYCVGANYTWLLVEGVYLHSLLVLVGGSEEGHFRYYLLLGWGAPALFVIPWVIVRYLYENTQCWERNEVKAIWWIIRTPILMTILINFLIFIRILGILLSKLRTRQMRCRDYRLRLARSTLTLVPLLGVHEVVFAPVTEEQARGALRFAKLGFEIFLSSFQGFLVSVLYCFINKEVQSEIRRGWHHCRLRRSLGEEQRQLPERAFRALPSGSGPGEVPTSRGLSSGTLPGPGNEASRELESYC

B1: AT717 (peptide)
peptide: Glutaryl-GTFISEYSI[Aib]LEKIK(C16 diacid)QQEFVEWLLAQKPSSGAPPPS-OH
SMILES: CC[C@H](C)[C@H](NC(=O)[C@H](CCCCN)NC(=O)[C@H](CCC(=O)O)NC(=O)[C@H](CC(C)C)NC(=O)C(C)(C)NC(=O)[C@@H](NC(=O)[C@H](CO)NC(=O)[C@H](Cc1ccc(O)cc1)NC(=O)[C@H](CCC(=O)O)NC(=O)[C@H](CO)NC(=O)[C@@H](NC(=O)[C@H](Cc1ccccc1)NC(=O)[C@@H](NC(=O)CNC(=O)CCCC(=O)O)[C@@H](C)O)[C@@H](C)CC)[C@@H](C)CC)C(=O)N[C@@H](CCCCNC(=O)CCCCCCCCCCCCCCC(=O)O)C(=O)N[C@@H](CCC(N)=O)C(=O)N[C@@H](CCC(N)=O)C(=O)N[C@@H](CCC(=O)O)C(=O)N[C@@H](Cc1ccccc1)C(=O)N[C@H](C(=O)N[C@@H](CCC(=O)O)C(=O)N[C@@H](Cc1c[nH]c2ccccc12)C(=O)N[C@@H](CC(C)C)C(=O)N[C@@H](CC(C)C)C(=O)N[C@@H](C)C(=O)N[C@@H](CCC(N)=O)C(=O)N[C@@H](CCCCN)C(=O)N1CCC[C@H]1C(=O)N[C@@H](CO)C(=O)N[C@@H](CO)C(=O)NCC(=O)N[C@@H](C)C(=O)N1CCC[C@H]1C(=O)N1CCC[C@H]1C(=O)N1CCC[C@H]1C(=O)N[C@@H](CO)C(=O)O)C(C)C
B2: AT616 (peptide)
peptide: EGTFISEYSI[Aib]MEKIK(C16 diacid)QQDFVEWLLAQKPSSGAPPPS-OH
modifications: N-terminus assumed
SMILES: CC[C@H](C)[C@H](NC(=O)[C@H](CCCCN)NC(=O)[C@H](CCC(=O)O)NC(=O)[C@H](CCSC)NC(=O)C(C)(C)NC(=O)[C@@H](NC(=O)[C@H](CO)NC(=O)[C@H](Cc1ccc(O)cc1)NC(=O)[C@H](CCC(=O)O)NC(=O)[C@H](CO)NC(=O)[C@@H](NC(=O)[C@H](Cc1ccccc1)NC(=O)[C@@H](NC(=O)CNC(=O)[C@@H](N)CCC(=O)O)[C@@H](C)O)[C@@H](C)CC)[C@@H](C)CC)C(=O)N[C@@H](CCCCNC(=O)CCCCCCCCCCCCCCC(=O)O)C(=O)N[C@@H](CCC(N)=O)C(=O)N[C@@H](CCC(N)=O)C(=O)N[C@@H](CC(=O)O)C(=O)N[C@@H](Cc1ccccc1)C(=O)N[C@H](C(=O)N[C@@H](CCC(=O)O)C(=O)N[C@@H](Cc1c[nH]c2ccccc12)C(=O)N[C@@H](CC(C)C)C(=O)N[C@@H](CC(C)C)C(=O)N[C@@H](C)C(=O)N[C@@H](CCC(N)=O)C(=O)N[C@@H](CCCCN)C(=O)N1CCC[C@H]1C(=O)N[C@@H](CO)C(=O)N[C@@H](CO)C(=O)NCC(=O)N[C@@H](C)C(=O)N1CCC[C@H]1C(=O)N1CCC[C@H]1C(=O)N1CCC[C@H]1C(=O)N[C@@H](CO)C(=O)O)C(C)C
B3: AT668 (peptide)
peptide: EGTFISDYSIALDKIK(C16 diacid)QQDFVEWLLAQKPSSGAPPPS-OH
modifications: N-terminus assumed
SMILES: CC[C@H](C)[C@H](NC(=O)[C@H](CO)NC(=O)[C@H](Cc1ccc(O)cc1)NC(=O)[C@H](CC(=O)O)NC(=O)[C@H](CO)NC(=O)[C@@H](NC(=O)[C@H](Cc1ccccc1)NC(=O)[C@@H](NC(=O)CNC(=O)[C@@H](N)CCC(=O)O)[C@@H](C)O)[C@@H](C)CC)C(=O)N[C@@H](C)C(=O)N[C@@H](CC(C)C)C(=O)N[C@@H](CC(=O)O)C(=O)N[C@@H](CCCCN)C(=O)N[C@H](C(=O)N[C@@H](CCCCNC(=O)CCCCCCCCCCCCCCC(=O)O)C(=O)N[C@@H](CCC(N)=O)C(=O)N[C@@H](CCC(N)=O)C(=O)N[C@@H](CC(=O)O)C(=O)N[C@@H](Cc1ccccc1)C(=O)N[C@H](C(=O)N[C@@H](CCC(=O)O)C(=O)N[C@@H](Cc1c[nH]c2ccccc12)C(=O)N[C@@H](CC(C)C)C(=O)N[C@@H](CC(C)C)C(=O)N[C@@H](C)C(=O)N[C@@H](CCC(N)=O)C(=O)N[C@@H](CCCCN)C(=O)N1CCC[C@H]1C(=O)N[C@@H](CO)C(=O)N[C@@H](CO)C(=O)NCC(=O)N[C@@H](C)C(=O)N1CCC[C@H]1C(=O)N1CCC[C@H]1C(=O)N1CCC[C@H]1C(=O)N[C@@H](CO)C(=O)O)C(C)C)[C@@H](C)CC
B4: AT623 (peptide)
peptide: EGTFISDYSIAMDKIK(C16 diacid)QQDFVEWLLAQAPSSGAPPPS-OH
modifications: N-terminus assumed
SMILES: CC[C@H](C)[C@H](NC(=O)[C@H](CO)NC(=O)[C@H](Cc1ccc(O)cc1)NC(=O)[C@H](CC(=O)O)NC(=O)[C@H](CO)NC(=O)[C@@H](NC(=O)[C@H](Cc1ccccc1)NC(=O)[C@@H](NC(=O)CNC(=O)[C@@H](N)CCC(=O)O)[C@@H](C)O)[C@@H](C)CC)C(=O)N[C@@H](C)C(=O)N[C@@H](CCSC)C(=O)N[C@@H](CC(=O)O)C(=O)N[C@@H](CCCCN)C(=O)N[C@H](C(=O)N[C@@H](CCCCNC(=O)CCCCCCCCCCCCCCC(=O)O)C(=O)N[C@@H](CCC(N)=O)C(=O)N[C@@H](CCC(N)=O)C(=O)N[C@@H](CC(=O)O)C(=O)N[C@@H](Cc1ccccc1)C(=O)N[C@H](C(=O)N[C@@H](CCC(=O)O)C(=O)N[C@@H](Cc1c[nH]c2ccccc12)C(=O)N[C@@H](CC(C)C)C(=O)N[C@@H](CC(C)C)C(=O)N[C@@H](C)C(=O)N[C@@H](CCC(N)=O)C(=O)N[C@@H](C)C(=O)N1CCC[C@H]1C(=O)N[C@@H](CO)C(=O)N[C@@H](CO)C(=O)NCC(=O)N[C@@H](C)C(=O)N1CCC[C@H]1C(=O)N1CCC[C@H]1C(=O)N1CCC[C@H]1C(=O)N[C@@H](CO)C(=O)O)C(C)C)[C@@H](C)CC
B5: AT617 (peptide)
peptide: EGTFISDYSIAMDKIK(C16 diacid)QQDFVEWLLAQKPSSGAPPPS-OH
modifications: N-terminus assumed
SMILES: CC[C@H](C)[C@H](NC(=O)[C@H](CO)NC(=O)[C@H](Cc1ccc(O)cc1)NC(=O)[C@H](CC(=O)O)NC(=O)[C@H](CO)NC(=O)[C@@H](NC(=O)[C@H](Cc1ccccc1)NC(=O)[C@@H](NC(=O)CNC(=O)[C@@H](N)CCC(=O)O)[C@@H](C)O)[C@@H](C)CC)C(=O)N[C@@H](C)C(=O)N[C@@H](CCSC)C(=O)N[C@@H](CC(=O)O)C(=O)N[C@@H](CCCCN)C(=O)N[C@H](C(=O)N[C@@H](CCCCNC(=O)CCCCCCCCCCCCCCC(=O)O)C(=O)N[C@@H](CCC(N)=O)C(=O)N[C@@H](CCC(N)=O)C(=O)N[C@@H](CC(=O)O)C(=O)N[C@@H](Cc1ccccc1)C(=O)N[C@H](C(=O)N[C@@H](CCC(=O)O)C(=O)N[C@@H](Cc1c[nH]c2ccccc12)C(=O)N[C@@H](CC(C)C)C(=O)N[C@@H](CC(C)C)C(=O)N[C@@H](C)C(=O)N[C@@H](CCC(N)=O)C(=O)N[C@@H](CCCCN)C(=O)N1CCC[C@H]1C(=O)N[C@@H](CO)C(=O)N[C@@H](CO)C(=O)NCC(=O)N[C@@H](C)C(=O)N1CCC[C@H]1C(=O)N1CCC[C@H]1C(=O)N1CCC[C@H]1C(=O)N[C@@H](CO)C(=O)O)C(C)C)[C@@H](C)CC
B6: AT614 (peptide)
peptide: EGTFISEYSIAMEKIK(C16 diacid)QQEFVEWLLAQKPSSGAPPPS-OH
modifications: N-terminus assumed
SMILES: CC[C@H](C)[C@H](NC(=O)[C@H](CO)NC(=O)[C@H](Cc1ccc(O)cc1)NC(=O)[C@H](CCC(=O)O)NC(=O)[C@H](CO)NC(=O)[C@@H](NC(=O)[C@H](Cc1ccccc1)NC(=O)[C@@H](NC(=O)CNC(=O)[C@@H](N)CCC(=O)O)[C@@H](C)O)[C@@H](C)CC)C(=O)N[C@@H](C)C(=O)N[C@@H](CCSC)C(=O)N[C@@H](CCC(=O)O)C(=O)N[C@@H](CCCCN)C(=O)N[C@H](C(=O)N[C@@H](CCCCNC(=O)CCCCCCCCCCCCCCC(=O)O)C(=O)N[C@@H](CCC(N)=O)C(=O)N[C@@H](CCC(N)=O)C(=O)N[C@@H](CCC(=O)O)C(=O)N[C@@H](Cc1ccccc1)C(=O)N[C@H](C(=O)N[C@@H](CCC(=O)O)C(=O)N[C@@H](Cc1c[nH]c2ccccc12)C(=O)N[C@@H](CC(C)C)C(=O)N[C@@H](CC(C)C)C(=O)N[C@@H](C)C(=O)N[C@@H](CCC(N)=O)C(=O)N[C@@H](CCCCN)C(=O)N1CCC[C@H]1C(=O)N[C@@H](CO)C(=O)N[C@@H](CO)C(=O)NCC(=O)N[C@@H](C)C(=O)N1CCC[C@H]1C(=O)N1CCC[C@H]1C(=O)N1CCC[C@H]1C(=O)N[C@@H](CO)C(=O)O)C(C)C)[C@@H](C)CC

The binders below were run against T1, human GIP receptor (assay: cell-based or functional assay).
In the case of EGTFISEYSIALEKIK(C16 diacid)QQEFVEWLLAQKPSSGAPPPS-OH [AT718], the “nM (Kb, Gaddum assay, cAMP)” value is reported as 0.33 nM and the “pKb (Gaddum assay, cAMP)” value is reported as 9.5. For B1, the “nM (Kb, Gaddum assay, cAMP)” value was 0.17 nM and the “pKb (Gaddum assay, cAMP)” value was 9.8.

Biological target: T1, human GIP receptor
Test: cell-based or functional assay
Remark: another data set of the same source
With EGTFISDYSI[Aib]MDKIK(C16 diacid)QQDFVEWLLAQKPSSGAPPPS-OH [AT665] the “cAMP antagonism % inhib (CisBio assay)” value was 88%, the “cAMP antagonism nM (IC50, CisBio assay)” value was 0.15 nM and the “cAMP antagonism pIC50 (CisBio assay)” value was 9.8. For B2, the “cAMP antagonism % inhib (CisBio assay)” value was 100%, the “cAMP antagonism nM (IC50, CisBio assay)” value was 0.473 nM and the “cAMP antagonism pIC50 (CisBio assay)” value was 9.3. EGTFISDYSI[Aib][Nle]DKIK(C16 diacid)QQDFVEWLLAQKPSSGAPPPS-OH [AT667] was tested, and the “cAMP antagonism % inhib (CisBio assay)” value was 86%, the “cAMP antagonism nM (IC50, CisBio assay)” value was 0.736 nM and the “cAMP antagonism pIC50 (CisBio assay)” value was 9.1. With B3 the “cAMP antagonism % inhib (CisBio assay)” value was 92%, the “cAMP antagonism nM (IC50, CisBio assay)” value was 0.944 nM and the “cAMP antagonism pIC50 (CisBio assay)” value was 9. In the case of B4, the “cAMP antagonism % inhib (CisBio assay)” value is reported as 98%, the “cAMP antagonism nM (IC50, CisBio assay)” value is reported as 3.16 nM and the “cAMP antagonism pIC50 (CisBio assay)” value is reported as 8.5. B5 was tested, and the “cAMP antagonism % inhib (CisBio assay)” value was 91%, the “cAMP antagonism nM (IC50, CisBio assay)” value was 0.794 nM and the “cAMP antagonism pIC50 (CisBio assay)” value was 9.1. For EGTFISDYSI[Aib]LDKIK(C16 diacid)QQDFVEWLLAQKPSSGAPPPS-OH [AT666], the “cAMP antagonism % inhib (CisBio assay)” value was 89%, the “cAMP antagonism nM (IC50, CisBio assay)” value was 0.266 nM and the “cAMP antagonism pIC50 (CisBio assay)” value was 9.6. With B6 the “cAMP antagonism % inhib (CisBio assay)” value was 100%, the “cAMP antagonism nM (IC50, CisBio assay)” value was 1.08 nM and the “cAMP antagonism pIC50 (CisBio assay)” value was 9.
